The chains are these.
B1: human basigin, entire ectodomain (receptor)
chain: EPGTVFTTVEDLGSKILLTCSLNDSATEVTGHRWLKGGVVLKEDALPGQKTEFKVDSDDQWGEYSCVFLPEPMGTANIQLHGPPRVKAVKSSEHINEGETAMLVCKSESVPPVTDWAWYKITDSEDKALMNGSESRFFVSSSQGRSELHIENLNMEADPGQYRCNGTSSKGSDQAIITLRVRSHLAAL
modifications: biotin (enzymatic monobiotinylation; site not stated)
B2: chimpanzee basigin, entire ectodomain (receptor)
chain: ASGAAGTVFTTVEDLGSKILLTCYMNDSATEVTGHRWLKGGVVLEEDALPGQKTEFKVDSDDQWGEYSCVFLPEPMGTANIQLHGPPRVKAVKSSEHINEGETAVLVCKSESVPPVTDWAWYKITDSGDKALMNGSESRFFVSSLQGRSELHIENLNMEADPGQYRCNGNSSEGSDQAVITLRVRSHLA
modifications: biotin (enzymatic monobiotinylation; site not stated)
B3: gorilla basigin, entire ectodomain (receptor)
chain: ASGAAGTVLTTVEELGSKILLTCSLNDSATEVTGHRWLKGGVVLKEDALPGQKTEFEVDSDDQWGEYSCVFLPEPMGTANIQLHHGPPRVKAVKLSEHINEGETAVLACKSESVPPVTDWAWYKITDSGDKALTNGSESRFFVSSSQGRSELYIENLNMEADPGQYRCNGTSSKGSDQAVITLRVRSHLA
modifications: biotin (enzymatic monobiotinylation; site not stated)
B4: P. reichenowi RH5 (ligand)
chain: MIRIKKKIILSILYIHLFILNSLSFENAKKKTKNQENNLTLLPIKSSEEEKSNIKHKDIGNVNKDDINNDIDNDKKDVKISNVKDHSTYIKSYLNKNVNDGLKYLFMPSHNAYIKKYSLFNKMNNDMLLNEKKDVNNNKEDDKNINHKNVNFLQNDFKGLPKNNIADSIDIVQDKEGHLDFIIIPYYSHVEYCKHLSIISVFHRLSTYGEYKDVIAFVKNINEKYDKVKDKCNEIKNDLITTIKKLENPHDVNNKNEDSNIYNTFEDIDDIYEDDMQDQLEYVYDTIEDADSDNTHPNKKKYHLINRTYKKMMDEYNLKKNKLIQCIKNNEPDFNNIYMDIKNYSTNRFENISCDNINFCNTNGIKNHYIYYIEKEMLAIKSKDLNKDIKDMTSILQQSELLLINLNKKMGSYIYIDTIKFIHKEMKYIFKRIEHHTNIIIDKIKIIDDKYKISINKTFPKNILLPKILDLSNEYALFITSSTLRQMLYNTFYTKEKHLHNLFHHLIYVLQIKFNDVPVHMEYFPLYKKKKILTQ

Among the targets are P. adleri RH5 (P. adleri); P. praefalciparum RH5 (P. praefalciparum); P. gaboni RH5 (P. gaboni); P. billcollinsi RH5 (P. billcollinsi).
Holding throughout (experiment): SPR
For orientation: Surface plasmon resonance follows binding to a sensor surface in real time, without labels.

The target of assay [1] is introgressed ancestral RH5 (reticulocyte-binding protein homologue 5) (calculated ancestor; parent sequence P. …, UniProt Q8IFM5 25-526, H200).
The target of assay [2] is B2.

Turning to B1, the Kd in the assay with P. adleri RH5 amounted to 3100 nM; with P. praefalciparum RH5, 1900 nM; in the assay with P. gaboni RH5 it was 3600 nM.

B2 gave a Kd in the assay with P. billcollinsi RH5 of 1800 nM.

With B3, the Kd was 1000 nM with P. adleri RH5, 2500 nM with P. praefalciparum RH5 and 3000 nM in assay [1].

Molecule B4 yielded a Kd in assay [2] of 4300 nM.

Usually Kd stands for the concentration at which binding is half-saturated.

The values are drawn from publication PMC6793842 (2019).
